Biological target: hRLuc-connector-DhaA.H272F-Flag fusion protein with covalently bound biotin-C18H32O4- (after treatment with biotin-C18H32O4-Cl) (Renilla; Rhodococcus rhodochrous) (UniProt P0A3G2)
Test: capture on streptavidin-coated 96 well plate after treatment with biotin-C18H32O4-Cl, read as luciferase activity

streptavidin (SA), coated on 96 well plates (Pierce) or on MagnaBind beads (Pierce #21344) (from UniProt P22629 37-163)
efficiency of capturing (percent of Renilla luciferase activity added to the plate): > 50%

— patent US20110201024A1
